Reference: publication PMC6686729, “RGD conjugated cell uptake off to on responsive NIR-AZA fluorophores: applications toward intraoperative fluorescence guided surgery” (Chemical Science, 2019)

Experiments:
[1] = tested on: MDA-MB 231 subcutaneous tumour; test: In vivo tumour fluorescence imaging, tumour-to-background ratio (TBR) over 96 h; parameters: species or system Balb/C nu/nu mice; conditions: 2 mg kg–1, n = 4 (n = 2 for 10)
Procedure: Each fluorophore was subjected to in vivo analysis using a standard dosing set at 2 mg kg^–1 delivered by i.v. tail vein injection. Post injection, images were acquired initially at regular intervals between 10 min and 9 h and thereafter less frequently at 24, 48 and 96 h. The method used for image analysis was consistent across all experiments with TBR values calculated by measuring tumour ROI fluorescence against an average of three equally sized background ROI regions, two of which were close to and one distant from the tumour (Fig. S11 ^†). […] As such, we adopted this value as a point of reference to compare result from different fluorophores and different time points for individual fluorophores. […]
All in vivo experiments were conducted in University College Dublin, Ireland in compliance with relevant laws, and their institutional guidelines for animal protocols and the guidelines issued b y the Ethical Committee of University College Dublin and under license from the Health Products Regulatory Authority (HPRA), Dublin, Ireland which approved the experiments.
All in vivo work was carried out in the biomedical facility, University College Dublin (UCD) . MDA-MB-231, a human breast adenocarcinoma cell line, was obtained from Caliper Life Sciences. Cells were maintained as a mono-layer culture in Minimum Essential Medium containing 10% (v/v) fetal bovine serum and supplemented with 1% (v/v) L–glutamine, 50 U/mL penicillin, […] streptomycin, 1% (v/v) sodium pyruvate and 1% (v/v) non-essential amino acids. All cells were maintained in 5% CO2 (v/v) and 21% O2 (v/v) at 37°C.
Balb/C nu/nu mice (Harlan) were housed in individually ventilated cages in temperature and humidity-controlled rooms with a 12 hours light dark cycle. 2-5 Million MDA-MB 231 cells in 100 μL of a DPBS:Matrigel (50:50) solution were injected subcutaneously behind the fore limb of the 5-week-old mice using a 25-g needle. Tumors reached an average diameter of 6 mm prior to imaging […]
images taken at early time points with less frequent imaging thereafter. Images were taken using the settings of excitation 675 nm (30 nm band pass filter) and emission 720 nm (20 nm band pass filter) narrow band pass filters and were analyzed using Living Image Software v4.7.2 (Caliper LS). The tumor-to-background ratio (TBR) was calculated by using the measured fluorescence signal in the ROIs of tumor target and average background. […]
The fluorescence intensity of the animal was measured and normalized to photons per second per centimeter squared per steradian per micro-Watt per centimeter squared [(p/sec/cm2/sr) /(μW/cm2)].
Mice were injected via tail vein (2 mg/kg) as follows; [n = 4 for 1 (3.7 nmol)], [n = 4 for 2 (13.2 nmol)], [n = 4 for 3 (10.5 nmol)], [n = 2 for 10 (10.1 nmol)], anesthetized, and imaged at various time points post injection. All fluorescence images were acquired with two second exposure (f/stop = 2).
Color scale was adjusted and kept same for each experiment to show good contrast of target tumor region to background over time. The fluorescence intensity was not affected by color scale adjusting. […]
For RGD competitive binding study, mice injected with 2 (13.2 nmol) with or without pre-injection with RDG 5 (89.5 nmol) and were imaged at 10 min interval for 3 hours, and then immediately euthanized by inhalation of carbon dioxide. For quantitative comparison, regions of interests (ROIs) […]

[2] = Photophysical properties (absorption, emission, FEF, quantum yield) in DMEM/10% FBS; format: physicochemical
From the text: The photophysical properties of the bio-responsive fluorophores 2 and 3 and the always-on control 10 were studied in solutions of Dulbecco's modified eagle's cell medium (DMEM) containing 10% fetal bovine serum (FBS). Absorption and emission wavelengths are listed in Table 1 and are, as would be expected for the NIR-AZA class, in the 690–730 nm range. At pH 7.4 fluorescence intensity of always-on10 was 17- and 15-fold greater than 2 and 3 respectively (Table 1). This illustrates both the emissive potential of the peptide conjugates and the ability to quench the bio-responsive derivatives in relevant biological media (Table 1, spectra and inset). […]
(§1) Fig. S2. Absorption pH titration and fluorescence spectra of 2 […]
Fig. S2 Absorbance (left) spectra of 2 (5 μM) in DMEM (10% FBS) /TX100 (4 mM) starting at pH 8 (grey line) to pH 3 (red line). Fluorescence (right) spectra of series dilution (3 µM, 1.8 µM, 1.3 µM, 0.5 µM) in DMEM (10% FBS) /TX100 (4 mM) at pH=3. Fluorescence excitation: 630 nm; range: 650- 900 nm; slit widths: 5/5. Inset: Integrated fluorescence intensity vs. Absorbance; calculated fluorescence quantum yield Φ = 0.16. […]
Fig. S3. Absorption pH titration and fluorescence spectra of 3 […]
Fig. S3 Absorbance (left) spectra of 3 (5 μM) in DMEM (10% FBS) /TX100 (4 mM) starting at pH 8 (grey line) to pH 3 (red line). Fluorescence (right) spectra of series dilution (3.5 µM, 2.6 µM, 1.3 µM, 0.8 µM) in DMEM (10% FBS) /TX100 (4 mM) at pH=3. Fluorescence excitation: 630 nm; range: 650- 900 nm; slit widths: 5/5. Inset: Integrated fluorescence intensity vs. Absorbance; calculated fluorescence quantum yield Φ = 0.18.
Fig. S4. Absorption and fluorescence spectra of 10 at pH 7.4, 6.6, 5.6 and 3.
Fig. S4 Absorbance (left) and fluorescence (right) spectra of 10 (5 μM) in DMEM (10% FBS) /TX100 (4 mM). Fluorescence excitation: 630 nm; range: 650- 900 nm; slit widths: 5/5.

MDA-MB 231 cells = test: Live MDA-MB 231 cell NIR-fluorescence/DIC time-lapse imaging; format: cell-based, human; conditions: live MDA-MB 231 cells, 1–5 μM, 37 °C
Procedure: With the responsive nature of 2 and 3 established, the potential for translation of these constructs to real-time live cell imaging was investigated. In order to illustrate the imaging effect of the bio-responsive characteristics of 2 and 3 the always-on10 was also imaged as a positive control. For live MDA-MB 231 cell experiments, chamber slide seeded cells were placed in a widefield microscope surrounded by an incubator to maintain the temperature at 37 °C and CO2 at 5%, following which an imaging field of view containing viable cells was chosen. The cells were treated with either 2, 3 or 10 (1–5 μM) and time-lapse NIR-fluorescence and differential interference contrast (DIC) images were acquired over 120 min. […] As expected, the […] morphology of the cell line is distinguishable by its membrane filopodia projections which is characteristic of its metastatic invasive phenotype (Movie S1 ^†). After 60 min incubation, both cell membrane and intracellular vesicle staining of the cytoplasm could be observed, both of which persisted at 120 min (Fig. 5b and c). […]
Fluorescence and DIC images were acquired on an Olympus IX73 epi-fluorescent microscope fitted with an Andor iXon Ultra 888 EMCCD and controlled by MetaMorph (v7.8). Fluorescence illumination was provided by a Lumencor Spectra X light engine containing a solid-state light source. […]

[3] = pH titration of fluorescence intensity, sigmoidal plot fit (pKa); format: physicochemical
From the text: In order to display the responsive nature and full emissive potential of 2 and 3, their DMEM solutions were sequentially acidified (Fig. 4a and b). This caused a successive increase in emission intensity as acidity increased, with a maximum intensity reached at approximately pH 4. […] While it is recognized that the extracellular matrix of a solid tumour can be more acidic than normal tissue, intracellular organelles such as late endosomes and lysosomes are also acidic ranging between pH 4.5 and 5.5.[27] Encouragingly, the measured fluorescence enhancement factor (FEF) for 2 and 3 between pH 7.2 and that of 4.5 (as found in lysosomes) was 23 and 18 respectively (Fig. 4c). […]
Fig. 4 Responsive emission characteristics of 2 and 3 (5 μM) in DMEM/10% FBS solutions containing TX100. (a) Fluorescence spectra of 2 at pH ranging from 8.0 (black) to 2.0 (red); inset sigmoidal plot fit of integrated fluorescence intensity versus pH. (b) Fluorescence spectra of 3 at pH ranging from 8.0 (black) to 2.0 (red); inset sigmoidal plot fit of integrated fluorescence intensity versus pH. […]
Fig. S1. Absorption and fluorescence pH titration of 1
Fig. S1 Absorbance (left) and fluorescence (right) spectra of 1 (5 μM) in PBS buffer/TX-100 (4 mM) starting at pH 8 (grey line) to pH 2 (red line). Fluorescence excitation: 630 nm; range: 650- 900 nm; […]
as §1

Compound	TBR ([1]; 10 to 60 min (first 60 min) post i.v. tail vein injection)	TBR ([1]; 3 h post i.v. injection)	TBR ([1]; 6 h post i.v. injection)	TBR ([1]; 24 h post i.v. injection)	TBR ([1]; 48 h post i.v. injection)	absorption or emission spectral changes between pH 7.2 and 4.5 ([2]; 5 μM in DMEM (10% FBS)/TX100 (4 mM))	λ max flu (nm) ([2]; DMEM/10% FBS with 4 mM TX-100, 5 μM)	FEF pH 7.4/4.5 (fluorescence enhancement factor) ([2]; DMEM/10% FBS with 4 mM TX-100, 5 μM, pH 7.4 vs 4.5)	λ max abs (nm) pH 4.5 ([2]; DMEM/10% FBS with 4 mM TX-100, pH 4.5)	λ max abs (nm) pH 7.2 ([2]; DMEM/10% FBS with 4 mM TX-100, pH 7.2)	fluorescence intensity of always-on 10 relative to 2 ([2]; pH 7.4, DMEM/10% FBS, 5 μM)	fluorescence intensity of always-on 10 relative to 3 ([2]; pH 7.4, DMEM/10% FBS, 5 μM)	cell staining pattern over 120 min (MDA-MB 231 cells; 5% CO2, time-lapse over 120 min)	cell staining in the first 15 min of incubation (MDA-MB 231 cells; 5% CO2, widefield NIR-fluorescence and DIC)	pKa [3]
cCRGDKGPDC (disulfide) [compound 10, iRGD conjugated always-on NIR-AZA control with alkylsulfonic acid group, from fluorochrome 9 and peptide 8]	below 1.3	1.5	1.9	above 2	2	no absorption or emission spectral changes	733 nm	1.0	703 nm	705 nm	17 fold	15 fold	first showed plasma membrane before internal organelle staining	fluorescence specific to the plasma membrane	
CC(=O)N[C@@H](CSC1CC(=O)N(CCC(=O)NCCOc2ccc(-c3cc(-c4ccccc4)c4n3[B-](F)(F)[N+]3=C(c5ccc(O)c([N+](=O)[O-])c5)C=C(c5ccccc5)C3=N4)cc2)C1=O)C(=O)NCCCC[C@@H]1NC(=O)[C@H](CC(=O)O)NC(=O)CNC(=O)[C@H](CCCNC(=N)N)NC(=O)[C@@H](NC(C)=O)CSSC[C@@H](C(N)=O)NC(=O)[C@H](CC(=O)O)NC(=O)[C@@H]2CCCN2C(=O)CNC1=O (stereo partly shown) [compound 3]															4.9
N=C(N)NCCC[C@@H]1NC(=O)[C@H](CCCCNC(=O)COCCOCCNC(=O)COCCOCCNC(=O)COc2ccc(-c3cc(-c4ccccc4)c4n3[B-](F)(F)[N+]3=C(c5ccc(O)c([N+](=O)[O-])c5)C=C(c5ccccc5)C3=N4)cc2)NC(=O)[C@@H](Cc2ccccc2)NC(=O)[C@H](CC(=O)O)NC(=O)CNC1=O [compound 2]															4.9
